# The supplement of paper PMC10567573
# ± gives the standard deviation.
# Assay: protein stability index of a GFP-peptide fusion (GPS, HEK-293T) (PSI 1-6); higher = more stable
# Conditions: c terminus: a fixed tail appended
# 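Note: 24-mer peptide tiles fused after GFP, lentivirally expressed, FACS-sorted into six equal bins by GFP/DsRed ratio, decoded by Illumina sequencing, PSI is the read-weighted mean bin number.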
Sequence,protein stability index (treatment: DMSO),"protein stability index (treatment: MLN4924 1 uM, 8 h)"
LQDLALQGAKERAHQQKKHSGFED [CHGA],4.92 ± 0.29,5.06 ± 0.22
LQGLIPGARYEVTVVSVRGFEESE [TNXB],2.19 ± 0.34,2.44 ± 0.78
LQHVSEPQAHQESTRGAARPAQAI [SPACA9],4.96 ± 0.19,5.04 ± 0.098
LQILAYGNQESKLIILASGGPQAL [CTNNB1],2.89 ± 1.4,2.22 ± 1.1
LQRQAEQNPTASYYNVVLLRYQFS [FCHO1],2.23 ± 0.4,2.28 ± 0.34
LRDDVLCARMLYNYGADTNTRNYE [ASB7],3.1 ± 0.21,2.86 ± 0.14
LREIPETTPIEEVKGLFKSENCPK [LARP4],5.06 ± 0.19,5.1 ± 0.33
LRELCRLWLRPETHTKEQILELVV [ZNF24],2.44 ± 0.21,2.11 ± 0.34
LRLLQHTPSARRNYRIAGARLMRS [C6orf223],2.99 ± 0.22,3.08 ± 0.32
LRRESTSQKEMDKAETKTKKAAES [FCHO1],5.45 ± 0.28,5.46 ± 0.13
LRRKTPRHKQPTLLMVRASRRSGK [C6orf223],3.61 ± 0.13,4.04 ± 0.22
LSGVEEELQRTKQEVLSLRRENST [SASS6],5.07 ± 0.22,5 ± 0.21
LSLPARNQAGYFMLPTVITDIKDE [ALDH8A1],3.81 ± 0.39,3.88 ± 0.27
LSNLVQHILKKYYGNGMRKSPEMP [RTP4],2.43 ± 0.35,2.28 ± 0.11
LSQPQQGEAMLANFKPRGYSECIV [GAN],3.13 ± 0.21,3.02 ± 0.37
LSSDRVANSSSEAPFPNVSTSLLT [ADAMTSL2],4.17 ± 0.21,4.14 ± 0.29
LSSNREAHQHRDKMQQSKNQVVSS [CSNK1G3],4.72 ± 0.21,4.81 ± 0.37
LTELVQRRITYLQNPKDCSKAKKL [FUT8],3.99 ± 0.35,4.08 ± 0.24
LTLQVLVAGNPQDTRLRYSFFVPR [ADAMTS4],3.13 ± 0.4,3.19 ± 0.44
LVAKELGQTGTRLTPADKAEHMKR [AUP1],4.41 ± 0.4,4.29 ± 0.21
LVVDYIDEGRLVLEFSLLSYAFGK [SOAT1],3.29 ± 0.8,3.17 ± 0.48
LWKRMDKLEAEKRILQEKLDQPVS [CCDC6],3.81 ± 0.2,3.94 ± 0.35

Sequence,protein stability index (treatment: DMSO),"protein stability index (treatment: MLN4924 1 uM, 8 h)"
LYPAVSAVWGQCQVRIRYLGERRA [SPSB2],2.56 ± 0.19,2.62 ± 0.38
LYQKQPKIGYHLLYYLRASKAAAG [INTS3],2.55 ± 0.31,2.25 ± 0.33
MAAESGELIGACEFMKDRLYFATL [CDC14A],2.53 ± 1.1,1.82 ± 0.46
MAAPEERDLTQEQTEKLLQFQDLT [FAF2],5.13 ± 0.29,5.16 ± 0.2
MADGNEDLRADDLPGPAFESYESM [KLHDC2],5.41 ± 0.23,5.26 ± 0.26
MAGGPPNTKAEMEMSLAEELNHGR [FATE1],5.17 ± 0.14,5.22 ± 0.27
MEALAAETNLLLAQKQRLERALDA [TEKT4],4.13 ± 0.4,4.13 ± 0.38
MEDKEMTGPQLPESLEDVAMYISQ [ZNF263],4.73 ± 0.23,4.78 ± 0.2
MEHLIYGEPRKLLTQDWVQENYLE [MAGEA10],3.41 ± 0.35,3.47 ± 0.3
MEMYNVIMTVKEDQFSALGLDPCL [SLC6A17],2.45 ± 0.62,2.26 ± 0.15
MGQTALAGGSSSTPTPQALYPDLS [SPSB2],4.46 ± 0.37,4.66 ± 0.37
MGVNAVHWFRKGLRLHDNPALKEC [CRY1],2.53 ± 0.23,2.54 ± 0.31
MGWFNNEVGSMKIQSGAWVCYQYP [CRYBA1],2.74 ± 0.73,2.61 ± 0.29
MKDSMSAAEVGTGQYATTKGISQT [EPB41L3],4.75 ± 0.094,4.78 ± 0.44
MLLDIKTRLEQEIATYRSLLEGQD [KRT15],2.9 ± 0.34,3.07 ± 0.34
MLQATAEANNLAAAASAKDIYYNN [ATL3],3.15 ± 0.18,3.44 ± 0.38
MLTRRVLQLETVLEGVVSQIDAVG [PKD2L1],2.29 ± 0.49,2.46 ± 0.51
MPGFPDNIRPSSSGGYWVGMSTIR [APMAP],2.87 ± 0.38,2.9 ± 0.42
MPSPCSCMSFNPETRRLSIGLDNG [WDFY2],3.19 ± 0.13,3.29 ± 0.25
MQAQASIEGAPEVTMSSLFKHILR [SLC25A25],2.36 ± 0.32,2.14 ± 0.13
MQLKSPMPSSTTQKDSYQPPGNVY [SPAG8],4.13 ± 0.17,4.14 ± 0.16
MRARDSVYHIECFRCSVCSRQLLP [ISL2],2.2 ± 0.24,2.22 ± 0.35
